# Results taken from patent publication US20190309044A1, “POLYPEPTIDES AND USES THEREOF AS A DRUG FOR TREATMENT OF AUTOIMMUNE DISORDERS” (Compugen Ltd., priority 2017, published 2019).
# “Also recorded” adds a separate entry of the source.
# B1: C1ORF32 ECD-Fc (SEQ ID NO:42): human-mouse fusion protein: human C1ORF32 ECD fused to mouse immunoglobulin Fc (SEQ ID NO:42) (protein)
# chain: LQVTVPDKKKVAMLFQPTVLRCHFSTSSHQPAVVQWKFKSYCQDRMGESLGMSSTRAQSLSKRNLEWDPYLDCLDSRRTVRVVASKQGSTVTLGDFYRGREITIVHDADLQIGKLMWGDSGLYYCIITTPDDLEGKNEDSVELLVLGRTGLLADLLPSFAVEIMGSENLYFQGSGEPRGPTIKPCPPCKCPAPNLLGGPSVFIFPPKIKDVLMISLSPIVTCVVVDVSEDDPDVQISWFVNNVEVHTAQTQTHREDYNSTLRVVSALPIQHQDWMSGKEFKCKVNNKDLPAPIERTISKPKGSVRAPQVYVLPPPEEEMTKKQVTLTCMVTDFMPEDIYVEWTNNGKTELNYKNTEPVLDSDGSYFMYSKLRVEKKNWVERNSYSCSVVHEGLHNHHTTKSFSRTPGK
# modifications: Fusion protein human C1ORF32-ECD fused to mouse IgG2a Fc
# Tests used:
# Assay type in all cases: in vivo, mouse
# SJL/J mice [1] = assay: Trafficking of transferred cells into the CNS by flow cytometry, adoptive transfer R-EAE; conditions: day +10 post cell transfer
# Experimental: PLP139-151 sensitized cells were generated as described in Materials and Methods (cell counts in the reactivation culture are presented in Table 2) and labeled with PBSE (4 uM) before transfer to naïve mice. In study “Cgen data” (FIG. 12), disease was induced in recipient mice (n=10 per group) by i.v. transfer of 5×10^6 blast cells to each recipient mouse. A relatively large number of transferred cells were used in order to allow detection of the transferred cells by flow cytometry analysis at the end of the study. Mice were split into Control Ig and C1ORF32 ECD-Fc (SEQ ID NO:42) treatment groups, receiving 100 ug/dose intraperitoneal injection three times per week for 2 weeks. On Day +14 after cell transfer, 5 representative mice from each group were selected for analysis of trafficking of transferred cells into the CNS. Spleens, cervical lymph nodes, and CNS were collected, and the number of PBSE- or PBSE+/CD45+/CD3+/CD4+ T cells was analyzed by flow cytometric analysis.
# An additional experiment (designated “MYC48 FACS”, FIG. 13) was performed using an alternative staining follow-up approach. […] To evaluate C1ORF32 ECD-Fc (SEQ ID NO:42) effect on immune cell trafficking to the CNS, spleens, cervical lymph nodes, and CNS cells collected form 5 mice on day +10 post cell transfer, and the number of transferred CD45hi PBSE+ or GFP+ cells was analyzed by flow cytometry. […]
# male DBA/1OlaHsd mice = assay: CIA, early stage treatment from day 18; conditions: 3.3 mg/kg
# Excerpt: The aim of this study was to estimate the effect of C1ORF32-P8-V1-ECD-mFc (SEQ ID NO:42) on disease development in a type II Collagen induced arthritis (CIA) mouse model upon administration at early stage of disease; i.e., when specific and predictive markers for RA development are present in the serum, but before onset of clinical symptoms.
# In the CIA model, arthritis is induced by immunization with type II collagen in CFA on day 1 which is followed by boosting with type II collagen in CFA on day 21. Antibodies against both CII and cyclic citrullinated peptide (CCPs) appear early after immunization, before joint swelling is observed.
# To evaluate the effect of early stage treatment with C1ORF32-P8-V1-ECD-mFc (SEQ ID NO:42) on disease development treatment started on day 18 and was given IP injection, Q2D to mice from day 18 until day 32.
# Male DBA/101aHsd mice weighing 16-25 grams (mean 22 g) on day 18 of the study were obtained from Harlan, Inc., Indianapolis, Ind. Mice (10/group) were anaesthetized with Isoflurane, shaved at the base of the tail, and injected intradermally with 150 μl of Freund's Complete Adjuvant (Sigma) containing bovine type II collagen (Elastin Products, Owensville, Mo.) (2 mg/ml) at the base of the tail on day 0 and again on day 21. On study day 18, mice were randomized by body weight into treatment groups. […]
# SJL/J mice [2] = assay: Adoptive transfer R-EAE, clinical score
# Experimental: Female SJL/J mice were primed with 50 μg of PLP139-151/CFA according to the standard laboratory protocol on day 0. On day 8 post disease induction, the inguinal lymph nodes were collected and the total lymph node cells were re-activated in culture in the presence of PLP139-151 for 3 days. At the end of culture, cells were collected and transferred into naive recipient SJL/J mice.
# a. Mice were shaved (about a 1 in.×1 in, square on the back between the hind flanks) and injected with CFA/PLP139-151 emulsion at 100 μl per mouse s.c., divided between three spots on the back and flanks. Peptide and final dose given per mouse: 50 μg of PLP139-151 peptide on day 0.
# b. On day 8 post priming with PLP139-151/CFA, the draining inguinal lymph nodes were collected, and single cell suspensions were prepared. Total lymph node cells were cultured at a density of 8×10^6 cells per ml in the HL-1 medium plus PLP139-151 peptide (20 μg/ml) in T75 flasks.
# c. After 3 days of culture, the PLP139-151 reactivated cells were collected and counted using an hemacytometer. The number of total viable cells and the number of blast cells was determined. […]
# f. Mice were scored on the indicated days, on a 0-5 disease score scale per standard laboratory protocol: 0, no abnormality; 1, limp tail; 2, limp tail and hind limb weakness; 3, hind limb paralysis; 4, hind limb paralysis and forelimb weakness; and 5, moribund. […]
molecule,measurement,setting,value
B1,number of total or activated transferred T cells in spleen and cervical lymph nodes,SJL/J mice [1],No change
same,effect of lower dose,male DBA/1OlaHsd mice,No effect
same,disease induction / development,SJL/J mice [2]; 100 ug/dose i.p. 3x/wk 2 wks from time of cell transfer,complete abolishment of disease induction; also recorded: abolished disease development
same,clinical signs of the disease,SJL/J mice [2]; 100 ug/mouse i.p. 3x/wk 2 wks from onset of disease remission,robust inhibition of clinical signs
